Target: C3d, P01024
Experiment: SPR, 0.5 µM FH with anti-FH.07 Fab′ (2 to 1 molar ratio) over immobilised C3d
Details: remark: other sources report otherwise

Sequence of C3d, P01024 (P01024 1002-1303 limits assumed): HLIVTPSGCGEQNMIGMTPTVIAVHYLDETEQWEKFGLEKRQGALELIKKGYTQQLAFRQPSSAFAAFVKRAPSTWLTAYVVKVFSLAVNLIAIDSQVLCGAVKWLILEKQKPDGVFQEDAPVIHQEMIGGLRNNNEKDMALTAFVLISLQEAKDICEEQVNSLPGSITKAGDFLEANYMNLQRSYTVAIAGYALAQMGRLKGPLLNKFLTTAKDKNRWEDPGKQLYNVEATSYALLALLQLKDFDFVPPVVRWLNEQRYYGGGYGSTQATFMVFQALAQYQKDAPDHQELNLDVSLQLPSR

fold increase of the measured interactions (RU) with anti-FH.07 Fab′ against FH alone: > 2 fold
B1: human factor H, P08603 19-1231 (protein, UniProt P08603 19-1231, looked up)
chain: EDCNELPPRRNTEILTGSWSDQTYPEGTQAIYKCRPGYRSLGNVIMVCRKGEWVALNPLRKCQKRPCGHPGDTPFGTFTLTGGNVFEYGVKAVYTCNEGYQLLGEINYRECDTDGWTNDIPICEVVKCLPVTAPENGKIVSSAMEPDREYHFGQAVRFVCNSGYKIEGDEEMHCSDDGFWSKEKPKCVEISCKSPDVINGSPISQKIIYKENERFQYKCNMGYEYSERGDAVCTESGWRPLPSCEEKSCDNPYIPNGDYSPLRIKHRTGDEITYQCRNGFYPATRGNTAKCTSTGWIPAPRCTLKPCDYPDIKHGGLYHENMRRPYFPVAVGKYYSYYCDEHFETPSGSYWDHIHCTQDGWSPAVPCLRKCYFPYLENGYNQNYGRKFVQGKSIDVACHPGYALPKAQTTVTCMENGWSPTPRCIRVKTCSKSSIDIENGFISESQYTYALKEKAKYQCKLGYVTADGETSGSITCGKDGWSAQPTCIKSCDIPVFMNARTKNDFTWFKLNDTLDYECHDGYESNTGSTTGSIVCGYNGWSDLPICYERECELPKIDVHLVPDRKKDQYKVGEVLKFSCKPGFTIVGPNSVQCYHFGLSPDLPICKEQVQSCGPPPELLNGNVKEKTKEEYGHSEVVEYYCNPRFLMKGPNKIQCVDGEWTTLPVCIVEESTCGDIPELEHGWAQLSSPPYYYGDSVEFNCSESFTMIGHRSITCIHGVWTQLPQCVAIDKLKKCKSSNLIILEEHLKNKKEFDHNSNIRYRCRGKEGWIHTVCINGRWDPEVNCSMAQIQLCPPPPQIPNSHNMTTTLNYRDGEKVSVLCQENYLIQEGEEITCKDGRWQSIPLCVEKIPCSQPPQIEHGTINSSRSSQESYAHGTKLSYTCEGGFRISEENETTCYMGKWSSPPQCEGLPCKSPPEISHGVVAHMSDSYQYGEEVTYKCFEGFGIDGPAIAKCLGEKWSHPPSCIKTDCLSLPSFENAIPMGEKKDVYKAGEQVTYTCATYYKMDGASNVTCINSRWTGRPTCRDTSCVNPPTVQNAYIVSRQMSKYPSGERVRYQCRSPYEMFGDEEVMCLNGNWTEPPQCKDSTGKCGPPPPIDNGDITSFPLSVYAPASSVEYQCQNLYQLEGNKRITCRNGQWSEPPKCLHPCVISREIMENYNIALRWTAKQKLYSRTGESVEFVCKRGYRLSSRSHTLRTTCWDGKLEYPTCAKR

— US20190194304A1
